Laboratory results reported in patent publication US20030105278A1 (MERK, published 2003).
Bridges are numbered along the chain shown (N, C = ends). Where no end group is shown, it is not given here.

B1: MCH analog SEQ. ID. NO. 65 (position 13: (2′)Nal) (peptide)
peptide: RCMLGRVXRPC
modifications: (2′)-naphthylalanine at position 13; N-terminal acetyl, C-terminal amide, Cys-Cys disulfide as in SEQ. ID. NO. 7
B2: mammalian MCH (SEQ. ID. NO. 11) (peptide)
peptide: DFDMLRCMLGRVYRPCWQV
modifications: disulfide 7-16
B3: MCH analog SEQ. ID. NO. 68 (position 13: Phe(pCOOH)) (peptide)
peptide: RCMLGRVXRPC
modifications: Phe(pCOOH) at position 13; N-terminal acetyl, C-terminal amide, Cys-Cys disulfide as in SEQ. ID. NO. 7
B4: MCH analog SEQ. ID. NO. 67 (position 13: Phe(pNH2)) (peptide)
peptide: RCMLGRVXRPC
modifications: Phe(pNH2) at position 13; N-terminal acetyl, C-terminal amide, Cys-Cys disulfide as in SEQ. ID. NO. 7
B5: MCH analog SEQ. ID. NO. 66 (position 13: Phe(pF)) (peptide)
peptide: RCMLGRVXRPC
modifications: p-fluoro-phenylalanine at position 13; N-terminal acetyl, C-terminal amide, Cys-Cys disulfide as in SEQ. ID. NO. 7
B6: MCH analog SEQ. ID. NO. 69 (position 13: Cha) (peptide)
peptide: RCMLGRVXRPC
modifications: Cha (cyclohexylalanine) at position 13; N-terminal acetyl, C-terminal amide, Cys-Cys disulfide as in SEQ. ID. NO. 7
B7: MCH analog SEQ. ID. NO. 14: Asp-Phe-Ala-Met-Leu-Arg-Cys-Met-Leu-Gly-Ara-Val-Phe-Arg-Pro-Cys-Trp-Gin-Tyr (peptide)
peptide: DFAMLRCMLGRVFRPCWQY
modifications: disulfide 7-16 (inferred)
B8: MCH analog SEQ. ID. NO. 13: Asp-Phe-Asp-Nle-Leu-Arg-Cys-Nle-Leu-Gly-Arg-Val-Tyr-Arg-Pro-Cys-Trp-Gln-Val (peptide)
peptide: DFDXLRCXLGRVYRPCWQV
modifications: norleucine (Nle) at positions 4 and 8; cyclization (S-S) between the two Cys
B9: MCH analog SEQ. ID. NO. 12: Ac-Cys-Met-Leu-Gly-Arg-Val-Tyr-Arg-Pro-Cys-Trp-Gln-Val (peptide)
peptide: Ac-CMLGRVYRPCWQV
modifications: disulfide 1-10 (inferred)
B10: MCH analog SEQ. ID. NO. 43 (position 6: Ac-D-Pro) (peptide)
peptide: XCMLGRVYRPC
modifications: Ac-D-Pro at position 6; C-terminal amide, Cys-Cys disulfide as in SEQ. ID. NO. 7
B11: MCH analog SEQ. ID. NO. 31 (position 6: Ac-Ala) (peptide)
peptide: Ac-ACMLGRVYRPC-NH2
modifications: disulfide 2-11
SMILES: CSCC[C@@H]1NC(=O)[C@@H](NC(=O)[C@H](C)NC(C)=O)CSSC[C@@H](C(N)=O)NC(=O)[C@@H]2CCCN2C(=O)[C@H](CCCNC(=N)N)NC(=O)[C@H](Cc2ccc(O)cc2)NC(=O)[C@H](C(C)C)NC(=O)[C@H](CCCNC(=N)N)NC(=O)CNC(=O)[C@H](CC(C)C)NC1=O
notes: ID; NO; 7 peptide; MCH position numbering
B12: MCH analog SEQ. ID. NO. 36 (position 6: Ac-Glu) (peptide)
peptide: ECMLGRVYRPC
modifications: Ac-Glu at position 6 (N-terminal acetyl); C-terminal amide, Cys-Cys disulfide as in SEQ. ID. NO. 7
notes: as for B11
B13: MCH analog SEQ. ID. NO. 33 (position 6: Ac-Pro) (peptide)
peptide: PCMLGRVYRPC
modifications: Ac-Pro at position 6 (N-terminal acetyl); C-terminal amide, Cys-Cys disulfide as in SEQ. ID. NO. 7
notes: as for B11
B14: MCH analog SEQ. ID. NO. 34 (position 6: Ac-Asn) (peptide)
peptide: NCMLGRVYRPC
modifications: Ac-Asn at position 6 (N-terminal acetyl); C-terminal amide, Cys-Cys disulfide as in SEQ. ID. NO. 7
notes: as for B11
B15: MCH analog SEQ. ID. NO. 35 (position 6: Ac-Ser) (peptide)
peptide: SCMLGRVYRPC
modifications: Ac-Ser at position 6 (N-terminal acetyl); C-terminal amide, Cys-Cys disulfide as in SEQ. ID. NO. 7
notes: as for B11
B16: MCH analog SEQ. ID. NO. 45 (position 6: Ac-D-Ser) (peptide)
peptide: XCMLGRVYRPC
modifications: Ac-D-Ser at position 6; C-terminal amide, Cys-Cys disulfide as in SEQ. ID. NO. 7
notes: as for B11
B17: MCH analog SEQ. ID. NO. 46 (position 6: Ac-D-Glu) (peptide)
peptide: XCMLGRVYRPC
modifications: Ac-D-Glu at position 6; C-terminal amide, Cys-Cys disulfide as in SEQ. ID. NO. 7
B18: MCH analog SEQ. ID. NO. 41 (position 6: Ac-D-Arg) (peptide)
peptide: XCMLGRVYRPC
modifications: Ac-D-Arg at position 6; C-terminal amide, Cys-Cys disulfide as in SEQ. ID. NO. 7
notes: ID; NO; 7 peptide; MCH position numbering; 15 (D-Arg^6)
B19: MCH analog SEQ. ID. NO. 44 (position 6: Ac-D-Asn) (peptide)
peptide: XCMLGRVYRPC
modifications: Ac-D-Asn at position 6; C-terminal amide, Cys-Cys disulfide as in SEQ. ID. NO. 7
B20: MCH analog SEQ. ID. NO. 37 (position 6: H) (peptide)
peptide: H-CMLGRVYRPC-NH2
modifications: disulfide 1-10
notes: as for B11
B21: MCH analog SEQ. ID. NO. 39 (position 6: Arg) (peptide)
peptide: RCMLGRVYRPC-NH2
modifications: disulfide 2-11 (inferred)
notes: as for B11
B22: MCH analog SEQ. ID. NO. 42 (position 6: Ac-D-Nle) (peptide)
peptide: XCMLGRVYRPC
modifications: Ac-D-Nle at position 6; C-terminal amide, Cys-Cys disulfide as in SEQ. ID. NO. 7
notes: as for B11
B23: MCH analog SEQ. ID. NO. 38 (position 6: Ac) (peptide)
peptide: Ac-CMLGRVYRPC-NH2
modifications: disulfide 1-10
SMILES: CSCC[C@@H]1NC(=O)[C@@H](NC(C)=O)CSSC[C@@H](C(N)=O)NC(=O)[C@@H]2CCCN2C(=O)[C@H](CCCNC(=N)N)NC(=O)[C@H](Cc2ccc(O)cc2)NC(=O)[C@H](C(C)C)NC(=O)[C@H](CCCNC(=N)N)NC(=O)CNC(=O)[C@H](CC(C)C)NC1=O
notes: as for B11
B24: MCH analog SEQ. ID. NO. 32 (position 6: Ac-Nle) (peptide)
peptide: XCMLGRVYRPC
modifications: Ac-Nle (acetyl-norleucine) at position 6; C-terminal amide, Cys-Cys disulfide as in SEQ. ID. NO. 7
B25: MCH analog SEQ. ID. NO. 49 (position 10: Nle) (peptide)
peptide: RCMLXRVYRPC
modifications: norleucine at position 10; N-terminal acetyl, C-terminal amide, Cys-Cys disulfide as in SEQ. ID. NO. 7
B26: MCH analog SEQ. ID. NO. 52 (position 10: Ser) (peptide)
peptide: Ac-RCMLSRVYRPC-NH2
modifications: disulfide 2-11 (inferred)
notes: as for B11
B27: MCH analog SEQ. ID. NO. 51 (position 10: Asn) (peptide)
peptide: Ac-RCMLNRVYRPC-NH2
modifications: disulfide 2-11 (inferred)
notes: as for B11
B28: MCH analog SEQ. ID. NO. 54 (position 10: Glu) (peptide)
peptide: Ac-RCMLERVYRPC-NH2
modifications: disulfide 2-11 (inferred)
notes: as for B11
B29: MCH analog SEQ. ID. NO. 53 (position 10: Lys) (peptide)
peptide: Ac-RCMLKRVYRPC-NH2
modifications: disulfide 2-11 (inferred)
notes: as for B11
B30: MCH analog SEQ. ID. NO. 48 (position 10: Leu) (peptide)
peptide: Ac-RCMLLRVYRPC-NH2
modifications: disulfide 2-11 (inferred)
notes: as for B11
B31: MCH analog SEQ. ID. NO. 50 (position 10: Pro) (peptide)
peptide: Ac-RCMLPRVYRPC-NH2
modifications: disulfide 2-11 (inferred)
notes: as for B11
B32: MCH analog SEQ. ID. NO. 47 (position 10: Ala) (peptide)
peptide: Ac-RCMLARVYRPC-NH2
modifications: disulfide 2-11 (inferred)
notes: as for B11
B33: MCH analog SEQ. ID. NO. 61 (position 10: γ-Abu) (peptide)
peptide: RCMLXRVYRPC
modifications: γ-Abu (gamma-aminobutyric acid) at position 10; N-terminal acetyl, C-terminal amide, Cys-Cys disulfide as in SEQ. ID. NO. 7
B34: MCH analog SEQ. ID. NO. 55 (position 10: D-Leu) (peptide)
peptide: RCMLXRVYRPC
modifications: D-Leu at position 10; N-terminal acetyl, C-terminal amide, Cys-Cys disulfide as in SEQ. ID. NO. 7
B35: MCH analog SEQ. ID. NO. 60 (position 10: β-Ala) (peptide)
peptide: RCMLXRVYRPC
modifications: β-Ala at position 10; N-terminal acetyl, C-terminal amide, Cys-Cys disulfide as in SEQ. ID. NO. 7
B36: MCH analog SEQ. ID. NO. 59 (position 10: D-Lys) (peptide)
peptide: RCMLXRVYRPC
modifications: D-Lys at position 10; N-terminal acetyl, C-terminal amide, Cys-Cys disulfide as in SEQ. ID. NO. 7
B37: MCH analog SEQ. ID. NO. 57 (position 10: D-Pro) (peptide)
peptide: RCMLXRVYRPC
modifications: D-Pro at position 10; N-terminal acetyl, C-terminal amide, Cys-Cys disulfide as in SEQ. ID. NO. 7
notes: as for B11
B38: MCH analog SEQ. ID. NO. 56 (position 10: D-Nle) (peptide)
peptide: RCMLXRVYRPC
modifications: D-Nle at position 10; N-terminal acetyl, C-terminal amide, Cys-Cys disulfide as in SEQ. ID. NO. 7
B39: MCH analog SEQ. ID. NO. 29 (N-Me-Arg^14) (peptide)
peptide: RCMLGRVYXPC
modifications: N-methyl-arginine at position 14; N-terminal acetyl, C-terminal amide, Cys-Cys disulfide as in SEQ. ID. NO. 7
B40: MCH analog SEQ. ID. NO. 28 (N-Me-Arg^11) (peptide)
peptide: RCMLGXVYRPC
modifications: N-methyl-arginine at position 11; N-terminal acetyl, C-terminal amide, Cys-Cys disulfide as in SEQ. ID. NO. 7
B41: MCH analog SEQ. ID. NO. 30 (Sar^15) (peptide)
peptide: RCMLGRVYRXC
modifications: sarcosine at position 15; N-terminal acetyl, C-terminal amide, Cys-Cys disulfide as in SEQ. ID. NO. 7
B42: MCH analog SEQ. ID. NO. 16 (D-Cys^7) (peptide)
peptide: RXMLGRVYRPC
modifications: D-Cys^7; N-terminal acetyl, C-terminal amide, Cys-Cys disulfide as in SEQ. ID. NO. 7
B43: MCH analog SEQ. ID. NO. 24 (D-Cys^16) (peptide)
peptide: RCMLGRVYRPX
modifications: D-Cys^16; N-terminal acetyl, C-terminal amide, Cys-Cys disulfide as in SEQ. ID. NO. 7

Molecular target: T1, human MCH receptor expressed from the open reading frame cDNA SEQ. ID. NO. 1 in 293-AEQ17 cells (human, UniProt Q99705 1-353)
Experiment: cell-based or functional assay

T1 sequence (Q99705 whole entry): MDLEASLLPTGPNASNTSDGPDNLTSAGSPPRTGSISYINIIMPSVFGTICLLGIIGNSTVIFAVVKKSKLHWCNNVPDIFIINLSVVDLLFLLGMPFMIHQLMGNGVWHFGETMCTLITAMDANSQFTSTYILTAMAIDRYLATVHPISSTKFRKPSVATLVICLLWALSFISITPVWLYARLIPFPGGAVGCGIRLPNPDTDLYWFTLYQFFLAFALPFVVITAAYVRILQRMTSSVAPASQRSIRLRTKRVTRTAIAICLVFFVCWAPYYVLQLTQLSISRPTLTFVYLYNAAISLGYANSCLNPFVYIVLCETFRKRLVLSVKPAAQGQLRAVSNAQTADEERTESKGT

Binder	Activation %	EC50
B1	105%	
B2	100%	
B3		> 10000 nM
B4	88%	
B5	98%	
B6	93%	

Molecular target: T1, human MCH receptor expressed from the …
Experiment: cell-based or functional assay
Remark: another data set of the same source

Binder	% Activation at 10 µM	EC50
B7	62.2%	
B8	65.9%	
B2	100%	
B9	3%	492 nM

Molecular target: T1, human MCH receptor expressed from the …
Experiment: cell-based or functional assay
Remark: another data set of the same source

Binder	Activation %	EC50
B10	96%	
B11	135%	114 nM
B12	113%	935 nM
B13	133%	59 nM
B14	96%	150 nM
B15	120%	207 nM
B16	93%	
B17	85%	
B2	100%	
B18	86%	45 nM
B19	94%	
B20	120%	809 nM
B21	106%	14 nM
B22	97%	110 nM
B23	82%	144 nM
B24	107%	

Molecular target: T1, human MCH receptor expressed from the …
Experiment: cell-based or functional assay
Remark: another data set of the same source

Binder	Activation %	EC50
B25	106%	
B26	104%	65 nM
B27	106%	23 nM
B28	12%	> 10000 nM
B29	25%	4500 nM
B30	106%	23 nM
B31	4%	519 nM
B32	104%	31 nM
B2	100%	
B33	101%	
B34	23%	
B35	3.2%	> 1000 nM
B36		> 10000 nM
B37	90%	190 nM
B38	33%	

Molecular target: T1, human MCH receptor expressed from the …
Experiment: cell-based or functional assay
Remark: another data set of the same source

Binder	Activation %	EC50
B2	100%	
B39		> 1000 nM
B40	110%	
B41	113%	25 nM

Molecular target: T1, human MCH receptor expressed from the …
Experiment: cell-based or functional assay
Remark: another data set of the same source

Binder	Activation %
B2	100%

Molecular target: T1, human MCH receptor expressed from the …
Experiment: cell-based or functional assay
Remark: another data set of the same source

Binder	Activation %
B42	34%
B2	100%
B43	76%

Molecular target: T2, human MCH receptor (membranes from a stable CHO or HEK-293 cell line) (human, UniProt Q99705 1-353)
T2 construct: whole, on cells; also called cloned human MCH receptor (CHO clone)
Experiment: SPA competition vs [125I]-human MCH (Phe13,Tyr19); human MCH receptor cell membranes

T2 sequence (Q99705 whole entry): as above

Binder	IC50
B7	0.5 nM
B9	6.4 nM

Molecular target: T2, human MCH receptor (membranes from a …)
Experiment: competition vs [125I]-human MCH (Phe13,Tyr19); human MCH receptor cell membranes (Example 3)

Binder	IC50
B11	27 nM
B12	19 nM
B13	3.4 nM
B14	2.6 nM
B15	4.5 nM
B16	2.3 nM
B18	0.46 nM
B20	12 nM
B21	0.13 nM
B22	1.2 nM
B23	1.6 nM

Molecular target: T2, human MCH receptor (membranes from a …)
Experiment: as above
Remark: another data set of the same source

Binder	IC50
B26	0.32 nM
B27	0.23 nM
B28	190 nM
B29	110 nM
B30	0.06 nM
B31	700 nM
B32	0.59 nM
B37	1.2 nM
